B1: CEN2322 (peptide)
peptide: DYRTAADTTGLQ
notes: synthetic peptide with the D564-Q575 segment of the mature alphaV chain; also called alphaV segment; native peptide
B2: CEN2553 (peptide)
peptide: DFRSWWDLEE
notes: synthetic peptide made from the consensus formula; C-terminal glutamates added for solubility
B3: CEN2319 (peptide)
peptide: DFRSWWDLSGYR
notes: synthetic linear peptide, phage-display consensus (mimotope); also called 12p1; 12pG1

Assays:
CNTO95 [1] = assay: flow cytometry: CNTO95 (10 ug/ml) staining of A375.S2 cells after preincubation with peptide at 200 ug/ml
CNTO95 [2] = assay: flow cytometry: CNTO95 (10 ug/ml) staining of A375.S2 cells after preincubation with peptide at 100 ug/ml
CNTO95 [3] = assay: isothermal titration calorimetry, peptide titrated into 3 µM CNTO95, 25° C. (commented: No binding)
CNTO95 [4] = assay: competitive ELISA: peptide preincubated with CNTO95, CNTO95 binding to αVβ3-coated plate detected
CNTO95 [5] = assay: isothermal titration calorimetry, peptide titrated into 3 µM CNTO95, 25° C.

Binder | Mean Channel Fluorescence (CNTO95 [1]) | Mean Channel Fluorescence (CNTO95 [2]) | ΔH (CNTO95 [3]) | EC50 (CNTO95 [4]) | Kd (CNTO95 [5]) | Molar ratio (Peptide/CNTO95) (CNTO95 [5]) | ΔH (CNTO95 [5])
B1 | 92.4 | 90.5 | -325 cal/mol |  |  |  | 
B2 | 9.41 | 12.9 |  |  |  |  | 
B3 | 11.6 | 12.3 |  | 5.8 µM | 4.2 µM | 2.2 | -12000 cal/mol
